Reference: PMC3393750, “Small Molecule Inhibitors of the LEDGF Site of Human Immunodeficiency Virus Integrase Identified by Fragment Screening and Structure Based Design” (PLoS ONE, 2012)

B1: Hexa-His tagged full length HIV IN (enzyme)
chain: FLDGIDKAQEEHEKYHSNWRAMASDFNLPPVVAKEIVASCDKCQLKGEAMHGQVDCSPGIWQLDCTHLEGKVILVAVHVASGYIEAEVIPAETGQETAYFLLKLAGRWPVKTVHTDNGSNFTSTTVKAACWWAGIKQEFGIPYNPQSQGVIESMNKELKKIIGQVRDQAEHLKTAVQMAVFIHNFKRKGGIGGYSAGERIVDIIATDIQTKELQKQITKIQNFRVYYRDSRDPVWKGPAKLLWKGEGAVVIQDNSDIKVVPRRKAKIIRDYGKQMAGDDCVASRQDED
notes: HIV-1 integrase, the cut product of the Gag-Pol polyprotein; also called His6-tagged IN; HIV integrase; source: E. coli BL21(DE3), purified (nickel HiTrap column)

Columns and labels:
[1] = target: T1, FLAG epitope tagged LEDGF protein (UniProt O75475 1-530); test: AlphaScreen or HTRF; His6-tagged IN (30 nM) on Ni-chelate donor beads, Flag-tagged LEDGF (30 nM) on anti-FLAG acceptor beads; 25 mM Tris-Cl pH 7.5, 25 mM NaCl, 5 mM MnCl2, 5 mM MgCl2, 5 mM BME, 50 ug/ml BSA, 0.05% Tween-20; 1 hour at 30°C; competition with untagged LEDGF; conditions: both partners purified
T1 construct: lens epithelium derived growth factor (LEDGF/p75), coded by the PSIP1 gene; also called FLAG-LEDGF; Flag-tagged LEDGF; source: E. coli BL21(DE3), purified (heparin column, SP column); not shown: FLAG, N-terminal, kept

[2] = target: B1; test: as above; conditions: both partners purified

Row | Binder | binding result [1] | percent reduction of the AlphaScreen signal at a 1:1 molar ratio with FLAG-LEDGF [2] [%]
1 | B1 | binds | 
2 | Untagged LEDGF (natural protein, lens epithelium derived growth factor (LEDGF/p75), coded by the PSIP1 gene; source: E. coli, purified as described for FLAG-LEDGF) not shown |  | 50
